In paper PMC10333293, “Membrane recruitment of the polarity protein Scribble by the cell adhesion receptor TMIGD1” (Communications Biology, 2023):

Tests used:
APC PBM (Homo sapiens) = APC PBM (Homo sapiens) (UniProt P25054); conditions: cited from earlier work
[1] = biological target: T1, human Scribble PDZ domain 1 (hScrib/PDZ1, AA 728-815) (human, UniProt Q14160 728-815); test: ITC; purified PDZ domain at 75 uM against the 8-mer peptide at 900-1100 uM, 20 injections, 25 °C, 25 mM Tris-HCl pH 8.0, 150 mM NaCl, 5 mM TCEP, one-site binding model; conditions: both partners purified
T1 construct: human Scribble (Scrib), PDZ domain 1, residues 728-815; source: E. coli BL21 (DE3) CodonPlus or pLysS, purified, tag cleaved

[2] = biological target: T2, human Scribble PDZ domain 3 (hScrib/PDZ3, AA 1005-1094) (human, UniProt Q14160 1005-1094); test: as above; conditions: both partners purified
T2 construct: human Scribble (Scrib), PDZ domain 3, residues 1005-1094; source: E. coli BL21 (DE3) CodonPlus or pLysS, purified, tag cleaved
T2 sequence (looked up): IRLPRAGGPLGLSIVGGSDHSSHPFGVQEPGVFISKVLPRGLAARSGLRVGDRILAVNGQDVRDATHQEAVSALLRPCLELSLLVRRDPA

hScrib/PDZ1 (AA 728-815) = biological target: T3, hScrib/PDZ1 (AA 728-815) (human, UniProt Q14160 728-815); test: ITC; peptide (900-1100 µM) titrated into PDZ domain (75 µM); 25 mM Tris-HCl pH 8.0, 150 mM NaCl, 5 mM TCEP; 25 °C; 20 injections; one-site binding model; conditions: both partners purified
T3 construct: Scribble, human, PDZ1 domain, AA 728-815; In pGEX-6P-3 or pGIL-MBP; also called PDZ domain 1 of Scrib; source: E. coli BL21 (DE3) CodonPlus or pLysS, purified

[3] = biological target: T4, hScrib/PDZ3 (AA 1005-1094) (human, UniProt Q14160 1005-1094); test: as above; conditions: both partners purified
T4 construct: Scribble, human, PDZ3 domain, AA 1005-1094; In pGEX-6P-3 or pGIL-MBP; source: E. coli BL21 (DE3) CodonPlus or pLysS, purified
T4 sequence (looked up): T2 sequence (looked up)

T1 sequence (Q14160 728-815): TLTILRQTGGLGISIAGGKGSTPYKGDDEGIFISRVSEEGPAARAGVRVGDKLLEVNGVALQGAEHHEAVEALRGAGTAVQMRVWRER
T3 sequence (Q14160 728-815): as above
Chain of APC PBM (Homo sapiens) (P25054 whole entry, looked up, the tested form may be a part): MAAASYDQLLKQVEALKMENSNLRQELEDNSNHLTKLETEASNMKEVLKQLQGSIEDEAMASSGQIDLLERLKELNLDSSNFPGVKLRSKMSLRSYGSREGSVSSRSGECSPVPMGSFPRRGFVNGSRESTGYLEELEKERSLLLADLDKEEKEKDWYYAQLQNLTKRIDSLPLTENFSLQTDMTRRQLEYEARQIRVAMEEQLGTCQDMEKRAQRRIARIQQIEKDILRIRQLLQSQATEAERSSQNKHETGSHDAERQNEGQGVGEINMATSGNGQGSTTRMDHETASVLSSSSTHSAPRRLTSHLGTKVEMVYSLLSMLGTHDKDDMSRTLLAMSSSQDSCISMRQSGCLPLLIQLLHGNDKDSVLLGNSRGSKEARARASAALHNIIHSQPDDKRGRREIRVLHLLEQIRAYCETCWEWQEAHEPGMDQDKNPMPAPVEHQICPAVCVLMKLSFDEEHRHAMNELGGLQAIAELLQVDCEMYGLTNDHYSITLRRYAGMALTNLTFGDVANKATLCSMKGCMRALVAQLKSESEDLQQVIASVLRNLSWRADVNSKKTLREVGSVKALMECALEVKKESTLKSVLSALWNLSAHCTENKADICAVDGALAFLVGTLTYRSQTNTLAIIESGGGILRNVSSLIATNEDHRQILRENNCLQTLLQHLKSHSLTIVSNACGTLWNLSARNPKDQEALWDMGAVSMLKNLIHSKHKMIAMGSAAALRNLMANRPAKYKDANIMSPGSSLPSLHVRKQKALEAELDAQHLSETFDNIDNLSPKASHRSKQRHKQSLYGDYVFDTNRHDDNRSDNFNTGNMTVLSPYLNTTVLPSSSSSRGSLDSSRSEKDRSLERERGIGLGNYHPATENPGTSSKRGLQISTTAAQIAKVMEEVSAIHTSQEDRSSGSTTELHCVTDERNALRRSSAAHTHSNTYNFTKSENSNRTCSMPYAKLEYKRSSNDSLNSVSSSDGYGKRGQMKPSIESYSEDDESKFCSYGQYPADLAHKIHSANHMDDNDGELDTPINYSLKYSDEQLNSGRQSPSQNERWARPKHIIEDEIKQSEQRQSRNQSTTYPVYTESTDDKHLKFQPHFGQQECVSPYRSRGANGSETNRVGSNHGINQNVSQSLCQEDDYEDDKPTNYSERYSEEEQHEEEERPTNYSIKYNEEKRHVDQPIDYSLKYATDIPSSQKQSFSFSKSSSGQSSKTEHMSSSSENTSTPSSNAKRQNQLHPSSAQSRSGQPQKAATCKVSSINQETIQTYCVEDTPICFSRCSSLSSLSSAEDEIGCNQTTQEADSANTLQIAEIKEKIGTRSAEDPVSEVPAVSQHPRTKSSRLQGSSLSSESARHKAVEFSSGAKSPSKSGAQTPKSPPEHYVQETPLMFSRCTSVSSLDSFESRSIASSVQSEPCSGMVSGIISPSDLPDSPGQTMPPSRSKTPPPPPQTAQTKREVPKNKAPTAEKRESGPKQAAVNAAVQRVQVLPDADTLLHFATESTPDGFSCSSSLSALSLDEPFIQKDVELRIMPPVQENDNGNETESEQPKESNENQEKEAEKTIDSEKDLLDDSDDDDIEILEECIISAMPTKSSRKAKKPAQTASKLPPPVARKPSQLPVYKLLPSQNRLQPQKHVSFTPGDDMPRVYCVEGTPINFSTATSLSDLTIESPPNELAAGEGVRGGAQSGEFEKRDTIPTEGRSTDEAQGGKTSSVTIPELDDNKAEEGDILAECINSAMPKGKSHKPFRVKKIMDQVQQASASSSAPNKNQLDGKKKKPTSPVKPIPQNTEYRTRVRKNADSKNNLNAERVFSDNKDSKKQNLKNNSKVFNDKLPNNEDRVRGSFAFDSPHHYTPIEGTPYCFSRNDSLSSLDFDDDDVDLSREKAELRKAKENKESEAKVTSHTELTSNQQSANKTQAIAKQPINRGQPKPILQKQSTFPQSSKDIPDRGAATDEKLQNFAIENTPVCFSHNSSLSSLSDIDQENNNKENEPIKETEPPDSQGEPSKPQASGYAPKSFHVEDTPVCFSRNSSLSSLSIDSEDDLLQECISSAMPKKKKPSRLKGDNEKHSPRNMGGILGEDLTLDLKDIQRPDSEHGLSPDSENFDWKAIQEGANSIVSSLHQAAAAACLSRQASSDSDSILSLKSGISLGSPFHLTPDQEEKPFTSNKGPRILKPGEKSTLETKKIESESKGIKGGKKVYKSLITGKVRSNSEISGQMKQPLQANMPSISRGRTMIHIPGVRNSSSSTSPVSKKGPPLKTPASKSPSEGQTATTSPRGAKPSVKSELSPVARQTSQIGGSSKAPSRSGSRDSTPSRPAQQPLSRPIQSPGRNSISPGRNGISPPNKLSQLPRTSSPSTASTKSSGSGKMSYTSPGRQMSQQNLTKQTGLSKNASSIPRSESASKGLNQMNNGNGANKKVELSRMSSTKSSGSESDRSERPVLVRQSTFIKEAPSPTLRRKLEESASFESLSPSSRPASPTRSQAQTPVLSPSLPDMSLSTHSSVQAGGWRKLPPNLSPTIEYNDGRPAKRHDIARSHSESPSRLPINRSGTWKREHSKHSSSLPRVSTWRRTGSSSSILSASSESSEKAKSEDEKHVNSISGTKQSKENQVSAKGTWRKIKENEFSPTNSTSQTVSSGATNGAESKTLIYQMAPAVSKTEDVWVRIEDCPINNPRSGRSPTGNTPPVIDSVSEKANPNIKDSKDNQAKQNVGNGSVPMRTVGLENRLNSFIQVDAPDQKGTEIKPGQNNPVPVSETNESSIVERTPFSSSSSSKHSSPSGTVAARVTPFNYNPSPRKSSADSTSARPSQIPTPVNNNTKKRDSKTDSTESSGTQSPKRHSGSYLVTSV

Molecule: Scribble PDZ1 (from UniProt Q14160)
- Kd (APC PBM (Homo sapiens)): 6 µM

B1: C-terminally derived 8-mer human TMIGD1 peptide (peptide)
peptide: DPHSETAL
notes: also called TMIGD1/WT; TMIGD1 PBM peptide; source: synthetic peptide, obtained from Genscript
- stoichiometry N [1]: 0.95 ± 0.07
- stoichiometry N [2]: 0.93 ± 0.04

B2: C-terminally derived 8-mer human TMIGD1 peptide (DPHSETAL) (peptide)
peptide: DPHSETAL
notes: TMIGD1, human, the eight C-terminal residues with the PBM (SETAL), free C-terminal carboxyl; also called TMIGD1/WT; TMIGD1 PBM peptide; source: synthetic peptide (Genscript)
- Kd (hScrib/PDZ1 (AA 728-815)): 18.2 µM
- Kd [3]: 9.12 µM
